Experimental data: US20260125472A1 (HEFEI TG IMMUNOPHARMA, published 2026)

Tests used:
[1] = target: T1, Trop2 on A-375-Trop2 melanoma cells (UniProt P09758 27-323, limits assumed); assay: flow cytometry, A-375-Trop2 cells, MFI [panel B]
T1 construct: whole, on cells
T1 sequence (looked up): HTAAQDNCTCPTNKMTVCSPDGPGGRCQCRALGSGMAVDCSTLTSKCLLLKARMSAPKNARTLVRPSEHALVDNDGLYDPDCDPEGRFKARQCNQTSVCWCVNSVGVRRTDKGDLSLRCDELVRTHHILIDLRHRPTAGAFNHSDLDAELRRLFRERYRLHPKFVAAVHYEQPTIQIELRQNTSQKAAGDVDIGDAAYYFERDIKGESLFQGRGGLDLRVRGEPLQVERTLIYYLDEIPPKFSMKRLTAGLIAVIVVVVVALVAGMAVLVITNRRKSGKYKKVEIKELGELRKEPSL
Summary of the method: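 Cells were blocked with goat serum at 4° C for 30 min, then incubated with serially diluted bispecific antibodies or hIgG1LALA control at 4° C for 30 min. Bound antibody was detected with Alexa-647 anti-human IgG (4° C, 30 min, dark) and read by flow cytometry.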

Trop2 protein = target: T2, Trop2 protein (UniProt P09758 27-274); assay: ELISA, coated Trop2 protein, OD450
T2 construct: Bought recombinant protein; also called Trop2-Biotin protein (biotin-labelled, bridging ELISA)
T2 sequence (looked up): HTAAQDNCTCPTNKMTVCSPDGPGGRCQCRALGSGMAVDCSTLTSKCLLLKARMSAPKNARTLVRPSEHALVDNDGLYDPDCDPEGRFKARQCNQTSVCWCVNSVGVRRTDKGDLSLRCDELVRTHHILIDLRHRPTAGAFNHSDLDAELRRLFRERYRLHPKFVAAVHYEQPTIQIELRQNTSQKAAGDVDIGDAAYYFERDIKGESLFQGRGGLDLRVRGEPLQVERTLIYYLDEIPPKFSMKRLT
Summary of the method: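 Plates coated overnight at 4° C with Trop2 at 2 μg/ml, blocked with PBS/10% BSA; serially diluted bispecifics bound 1 h at 37° C. Detection by HRP anti-human Fab secondary, TMB 3 min, acid stop, OD450.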

PDL1 protein = target: T3, PDL1 protein (UniProt Q9NZQ7 19-238); assay: ELISA, coated PDL1 protein, OD450 [panel A]
T3 construct: Bought recombinant protein
T3 sequence (Q9NZQ7 19-238 limits assumed): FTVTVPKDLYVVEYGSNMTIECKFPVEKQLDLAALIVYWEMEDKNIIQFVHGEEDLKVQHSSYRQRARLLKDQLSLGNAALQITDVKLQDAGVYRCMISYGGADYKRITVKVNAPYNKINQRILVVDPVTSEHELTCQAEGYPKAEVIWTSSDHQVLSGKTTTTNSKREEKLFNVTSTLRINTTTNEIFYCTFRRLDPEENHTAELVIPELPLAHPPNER
Description: (3) PDL1 protein (purchased from Acro) was diluted to 2 μg/ml with PBS buffer, added to a 96-well plate at a volume of 100 μL/well, and placed at 4° C. overnight. The PBS buffer in the 96-well plate was aspirated, and the plate was washed 6 times with PBST (pH 7.2 PBS containing 0.10% Tween 20) buffer. Then, PBS/10% BSA was added at 200 μL/well and incubated at 37° C. for 2 h for blocking. The blocking solution was removed, and the plate was washed six times with PBST. Then, the to-be-tested bispecific antibodies serially diluted with PBST/0.05% BSA, Cross3×PDL1, Cross303×PDL1, Cross307×PDL1, Cross308×PDL1, Cross309×PDL1, Cross310×PDL1, Cross311×PDL1, Cross312×PDL1, Cross313×PDL1, Cross314×PDL1, Cross316×PDL1, Cross317×PDL1, Cross318×PDL1, Cross323×PDL1, Cross325×PDL1, Cross326×PDL1, and control IgG1LALA (purchased from Bio-Tech) were added at 100 μL/well, and incubated at 37° C. for 1 h. The reaction system was removed, and the plate was washed 6 times with PBST. Then, the cells were incubated at 37° C. for 1 h with HRP (horseradish peroxidase)-labeled anti-human secondary antibody (Fab specific) (purchased from Sigma) serially diluted with PBST/0.05% BSA at 100 μL/well. After the plate was washed six times with PBST, TMB (tetramethylbenzidine) was added at 80 μL/well and incubated at room temperature for 3 min. 4 M sulfuric acid was added at 80 μL/well to terminate the reaction. The absorbance was read at 450 nm using a microplate reader.

[2] = target: T4, PDL1 on A-375 melanoma cells, HCT-15 colorectal cancer cells and A549 lung cancer cells (UniProt Q9NZQ7 19-290, limits assumed); assay: flow cytometry, A549 cells, MFI [panel B]
T4 construct: whole, on cells
T4 sequence (Q9NZQ7 19-290 limits assumed): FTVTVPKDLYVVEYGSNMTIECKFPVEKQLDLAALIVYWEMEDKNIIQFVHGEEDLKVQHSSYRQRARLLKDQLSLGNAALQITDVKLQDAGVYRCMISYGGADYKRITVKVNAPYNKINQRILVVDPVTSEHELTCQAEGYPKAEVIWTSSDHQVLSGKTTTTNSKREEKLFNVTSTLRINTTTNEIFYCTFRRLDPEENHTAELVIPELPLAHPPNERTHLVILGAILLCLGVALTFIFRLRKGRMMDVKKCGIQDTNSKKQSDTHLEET
Description: (2) The tumor cells were diluted to 2×10⁶/ml with PBS and added to a 1.5 ml EP tube at a volume of 100 μl/tube, and goat serum was added thereto at 10 μl/tube. The cells were blocked at 4° C. for 30 min. The serially diluted bispecific antibodies, Cross3×Trop2, Cross303×Trop2, Cross307×Trop2, Cross308×Trop2, Cross309×Trop2, Cross310×Trop2, Cross311×Trop2, Cross312×Trop2, Cross313×Trop2, Cross314×Trop2, Cross316×Trop2, Cross317×Trop2, Cross318×Trop2, Cross323×Trop2, Cross325×Trop2, Cross326×Trop2, and Cross3×PDL1, Cross303×PDL1, Cross307×PDL1, Cross308×PDL1, Cross309×PDL1, Cross310×PDL1, Cross311×PDL1, Cross312×PDL1, Cross313×PDL1, Cross314×PDL1, Cross316×PDL1, Cross317×PDL1, Cross318×PDL1, Cross323×PDL1, Cross325×PDL1, Cross326×PDL1, and control hIgG1LALA (purchased from Bio-Tech) were added and incubated at 4° C. for 30 min. 1 ml of PBS was added to the EP tube, followed by centrifugation at 3500 rpm for 5 min at 4° C. The supernatant was discarded, and the cells were washed again with PBS. After centrifugation, the supernatant was completely discarded, and the cells were resuspended with PBS at 100 μl/tube. Alexa-647-labeled goat anti-human IgG secondary antibody (purchased from Jackson lab) was added at 1 μl/tube and incubated at 4° C. in the dark for 30 min. The cells were washed twice with PBS, and the supernatant was completely discarded after centrifugation. The cells were resuspended with PBS at 200 μl/tube and assay was performed using the flow cytometry.

B1: Cross326×Trop2 (bispecific antibody)
scFv: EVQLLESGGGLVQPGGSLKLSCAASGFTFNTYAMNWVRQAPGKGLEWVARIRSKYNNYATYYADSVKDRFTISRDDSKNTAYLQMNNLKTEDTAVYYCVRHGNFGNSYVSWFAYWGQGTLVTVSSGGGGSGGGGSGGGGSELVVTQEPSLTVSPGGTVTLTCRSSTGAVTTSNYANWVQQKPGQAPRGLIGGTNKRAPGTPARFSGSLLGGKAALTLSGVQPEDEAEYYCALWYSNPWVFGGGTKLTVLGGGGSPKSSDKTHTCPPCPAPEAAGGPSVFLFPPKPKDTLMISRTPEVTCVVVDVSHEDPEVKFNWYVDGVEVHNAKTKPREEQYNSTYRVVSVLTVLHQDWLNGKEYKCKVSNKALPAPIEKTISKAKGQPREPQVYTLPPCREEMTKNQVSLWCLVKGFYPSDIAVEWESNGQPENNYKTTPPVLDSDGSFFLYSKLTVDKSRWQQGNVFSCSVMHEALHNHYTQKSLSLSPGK
heavy: QVQLQQSGSELKKPGASVKVSCKASGYTFTNYGMNWVKQAPGQGLKWMGWINTYTGEPTYTDDFKGRFAFSLDTSVSTAYLQISSLKADDTAVYFCARGGFGSSYWYFDVWGQGSLVTVSSASTKGPSVFPLAPSSKSTSGGTAALGCLVKDYFPEPVTVSWNSGALTSGVHTFPAVLQSSGLYSLSSVVTVPSSSLGTQTYICNVNHKPSNTKVDKKVEPKSSDKTHTCPPCPAPEAAGGPSVFLFPPKPKDTLMISRTPEVTCVVVDVSHEDPEVKFNWYVDGVEVHNAKTKPREEQYNSTYRVVSVLTVLHQDWLNGKEYKCKVSNKALPAPIEKTISKAKGQPREPQVCTLPPSREEMTKNQVSLSCAVKGFYPSDIAVEWESNGQPENNYKTTPPVLDSDGSFFLVSKLTVDKSRWQQGNVFSCSVMHEALHNHYTQKSLSLSPGK
light: DIQLTQSPSSLSASVGDRVSITCKASQDVSIAVAWYQQKPGKAPKLLIYSASYRYTGVPDRFSGSGSGTDFTLTISSLQPEDFAVYYCQQHYITPLTFGAGTKVEIKRTVAAPSVFIFPPSDEQLKSGTASVVCLLNNFYPREAKVQWKVDNALQSGNSQESVTEQDSKDSTYSLSSTLTLSKADYEKHKVYACEVTHQGLSSPVTKSFNRGEC
Q: With B1 as the binder, how does the “EC50 (read off the curve)” value [1] read?
A: ~1 µg/mL

Q: And the “EC50 (read off the curve)” value (Trop2 protein)?
A: ~0.008 µg/mL

B2: Cross303×PDL1 (bispecific antibody, human IgG1, kappa, L234A L235A)
scFv: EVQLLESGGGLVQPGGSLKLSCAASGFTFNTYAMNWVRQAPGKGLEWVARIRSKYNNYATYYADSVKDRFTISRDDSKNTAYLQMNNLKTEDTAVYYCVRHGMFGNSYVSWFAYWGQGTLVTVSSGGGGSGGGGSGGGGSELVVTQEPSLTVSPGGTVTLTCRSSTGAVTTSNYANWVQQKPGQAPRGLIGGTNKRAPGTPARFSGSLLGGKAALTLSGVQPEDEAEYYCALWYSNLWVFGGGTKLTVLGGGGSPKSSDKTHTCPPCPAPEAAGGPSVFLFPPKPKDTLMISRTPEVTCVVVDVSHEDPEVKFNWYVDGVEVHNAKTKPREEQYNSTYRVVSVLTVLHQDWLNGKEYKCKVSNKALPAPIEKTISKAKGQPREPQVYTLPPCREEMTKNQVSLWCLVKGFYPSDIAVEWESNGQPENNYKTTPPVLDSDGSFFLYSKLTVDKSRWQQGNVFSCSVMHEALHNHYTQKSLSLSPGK
heavy: QVQLVQSGAEVKKPGASVKVSCKASGYSFTGYYMHWVRQAPGQGLEWIGRINPYNGATTYSQNFKDRATMTVDTSISTAYMELSRLRSDDTAVYYCVPTGMGYFLMDYWGQGTLVTVSSASTKGPSVFPLAPSSKSTSGGTAALGCLVKDYFPEPVTVSWNSGALTSGVHTFPAVLQSSGLYSLSSVVTVPSSSLGTQTYICNVNHKPSNTKVDKKVEPKSCDKTHTCPPCPAPEAAGGPSVFLFPPKPKDTLMISRTPEVTCVVVDVSHEDPEVKFNWYVDGVEVHNAKTKPREEQYNSTYRVVSVLTVLHQDWLNGKEYKCKVSNKALPAPIEKTISKAKGQPREPQVCTLPPSREEMTKNQVSLSCAVKGFYPSDIAVEWESNGQPENNYKTTPPVLDSDGSFFLVSKLTVDKSRWQQGNVFSCSVMHEALHNHYTQKSLSLSPGK
light: DIQLTQSPSFLSASVGDRVTITCKASQDVGSAVVWYQQKPGKAPKLLIYWASTRHTGVPSRFSGSGSGTEFTLTISSLQPEDFATYFCQQFTSYPTFGQGTKLEIKRTVAAPSVFIFPPSDEQLKSGTASVVCLLNNFYPREAKVQWKVDNALQSGNSQESVTEQDSKDSTYSLSSTLTLSKADYEKHKVYACEVTHQGLSSPVTKSFNRGEC
Q: Which “EC50 (read off the curve)” value (PDL1 protein) does the source give for B2 here?
A: ~0.2 µg/mL

Q: What about the “EC50 (read off the curve)” value [2] of the same binder?
A: ~1 µg/mL

B3: Cross308×PDL1 (bispecific antibody, human IgG1, kappa, L234A L235A)
scFv: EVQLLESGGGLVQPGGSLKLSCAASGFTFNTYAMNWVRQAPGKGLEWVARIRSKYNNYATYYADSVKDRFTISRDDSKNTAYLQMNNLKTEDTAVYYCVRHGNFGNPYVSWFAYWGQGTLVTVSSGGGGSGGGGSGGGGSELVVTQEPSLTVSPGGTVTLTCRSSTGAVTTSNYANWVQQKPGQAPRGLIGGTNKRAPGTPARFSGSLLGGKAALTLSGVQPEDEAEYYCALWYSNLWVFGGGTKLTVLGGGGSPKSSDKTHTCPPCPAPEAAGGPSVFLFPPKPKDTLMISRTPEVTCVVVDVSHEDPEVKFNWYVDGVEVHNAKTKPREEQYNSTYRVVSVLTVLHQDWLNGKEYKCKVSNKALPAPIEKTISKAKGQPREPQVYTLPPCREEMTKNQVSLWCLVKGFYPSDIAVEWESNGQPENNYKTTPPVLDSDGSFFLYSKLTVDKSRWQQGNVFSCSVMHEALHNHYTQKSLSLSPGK
heavy: QVQLVQSGAEVKKPGASVKVSCKASGYSFTGYYMHWVRQAPGQGLEWIGRINPYNGATTYSQNFKDRATMTVDTSISTAYMELSRLRSDDTAVYYCVPTGMGYFLMDYWGQGTLVTVSSASTKGPSVFPLAPSSKSTSGGTAALGCLVKDYFPEPVTVSWNSGALTSGVHTFPAVLQSSGLYSLSSVVTVPSSSLGTQTYICNVNHKPSNTKVDKKVEPKSCDKTHTCPPCPAPEAAGGPSVFLFPPKPKDTLMISRTPEVTCVVVDVSHEDPEVKFNWYVDGVEVHNAKTKPREEQYNSTYRVVSVLTVLHQDWLNGKEYKCKVSNKALPAPIEKTISKAKGQPREPQVCTLPPSREEMTKNQVSLSCAVKGFYPSDIAVEWESNGQPENNYKTTPPVLDSDGSFFLVSKLTVDKSRWQQGNVFSCSVMHEALHNHYTQKSLSLSPGK
light: DIQLTQSPSFLSASVGDRVTITCKASQDVGSAVVWYQQKPGKAPKLLIYWASTRHTGVPSRFSGSGSGTEFTLTISSLQPEDFATYFCQQFTSYPTFGQGTKLEIKRTVAAPSVFIFPPSDEQLKSGTASVVCLLNNFYPREAKVQWKVDNALQSGNSQESVTEQDSKDSTYSLSSTLTLSKADYEKHKVYACEVTHQGLSSPVTKSFNRGEC
Q: Which “EC50 (read off the curve)” value (PDL1 protein) does the source give for B3 here?
A: ~0.2 µg/mL

Q: What about the “EC50 (read off the curve)” value [2] of the same binder?
A: ~1 µg/mL

B4: Cross311×PDL1 (bispecific antibody, human IgG1, kappa, L234A L235A)
scFv: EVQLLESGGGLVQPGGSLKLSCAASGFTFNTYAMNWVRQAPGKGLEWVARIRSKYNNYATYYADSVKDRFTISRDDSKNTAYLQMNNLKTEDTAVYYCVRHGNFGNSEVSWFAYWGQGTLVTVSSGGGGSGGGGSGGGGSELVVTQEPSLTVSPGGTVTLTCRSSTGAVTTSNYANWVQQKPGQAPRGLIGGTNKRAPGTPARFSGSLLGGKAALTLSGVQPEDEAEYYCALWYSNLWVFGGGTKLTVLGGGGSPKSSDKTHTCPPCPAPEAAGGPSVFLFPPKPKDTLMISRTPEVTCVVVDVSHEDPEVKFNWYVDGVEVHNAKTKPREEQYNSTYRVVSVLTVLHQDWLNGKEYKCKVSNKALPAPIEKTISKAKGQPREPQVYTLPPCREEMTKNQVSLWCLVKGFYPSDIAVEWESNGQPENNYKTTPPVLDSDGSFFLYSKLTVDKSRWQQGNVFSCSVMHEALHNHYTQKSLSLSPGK
heavy: QVQLVQSGAEVKKPGASVKVSCKASGYSFTGYYMHWVRQAPGQGLEWIGRINPYNGATTYSQNFKDRATMTVDTSISTAYMELSRLRSDDTAVYYCVPTGMGYFLMDYWGQGTLVTVSSASTKGPSVFPLAPSSKSTSGGTAALGCLVKDYFPEPVTVSWNSGALTSGVHTFPAVLQSSGLYSLSSVVTVPSSSLGTQTYICNVNHKPSNTKVDKKVEPKSCDKTHTCPPCPAPEAAGGPSVFLFPPKPKDTLMISRTPEVTCVVVDVSHEDPEVKFNWYVDGVEVHNAKTKPREEQYNSTYRVVSVLTVLHQDWLNGKEYKCKVSNKALPAPIEKTISKAKGQPREPQVCTLPPSREEMTKNQVSLSCAVKGFYPSDIAVEWESNGQPENNYKTTPPVLDSDGSFFLVSKLTVDKSRWQQGNVFSCSVMHEALHNHYTQKSLSLSPGK
light: DIQLTQSPSFLSASVGDRVTITCKASQDVGSAVVWYQQKPGKAPKLLIYWASTRHTGVPSRFSGSGSGTEFTLTISSLQPEDFATYFCQQFTSYPTFGQGTKLEIKRTVAAPSVFIFPPSDEQLKSGTASVVCLLNNFYPREAKVQWKVDNALQSGNSQESVTEQDSKDSTYSLSSTLTLSKADYEKHKVYACEVTHQGLSSPVTKSFNRGEC
Q: What does the source list for B4?
A: EC50 (read off the curve) (PDL1 protein): ~0.2 µg/mL; EC50 (read off the curve) [2]: ~1 µg/mL

B5: Cross307×PDL1 (bispecific antibody, human IgG1, kappa, L234A L235A)
scFv: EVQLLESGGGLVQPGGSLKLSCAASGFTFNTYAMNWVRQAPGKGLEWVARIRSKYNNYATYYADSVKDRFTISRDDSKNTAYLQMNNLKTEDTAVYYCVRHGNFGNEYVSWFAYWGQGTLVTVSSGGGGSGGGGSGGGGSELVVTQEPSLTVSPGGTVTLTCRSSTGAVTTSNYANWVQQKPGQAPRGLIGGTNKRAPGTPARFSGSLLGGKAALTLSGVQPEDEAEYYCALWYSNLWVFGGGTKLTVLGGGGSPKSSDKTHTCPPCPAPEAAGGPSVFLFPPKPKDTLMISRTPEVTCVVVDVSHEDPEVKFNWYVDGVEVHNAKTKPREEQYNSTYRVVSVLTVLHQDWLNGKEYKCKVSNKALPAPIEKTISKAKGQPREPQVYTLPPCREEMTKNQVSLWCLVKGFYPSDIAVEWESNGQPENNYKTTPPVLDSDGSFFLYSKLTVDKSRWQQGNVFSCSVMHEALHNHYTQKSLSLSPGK
heavy: QVQLVQSGAEVKKPGASVKVSCKASGYSFTGYYMHWVRQAPGQGLEWIGRINPYNGATTYSQNFKDRATMTVDTSISTAYMELSRLRSDDTAVYYCVPTGMGYFLMDYWGQGTLVTVSSASTKGPSVFPLAPSSKSTSGGTAALGCLVKDYFPEPVTVSWNSGALTSGVHTFPAVLQSSGLYSLSSVVTVPSSSLGTQTYICNVNHKPSNTKVDKKVEPKSCDKTHTCPPCPAPEAAGGPSVFLFPPKPKDTLMISRTPEVTCVVVDVSHEDPEVKFNWYVDGVEVHNAKTKPREEQYNSTYRVVSVLTVLHQDWLNGKEYKCKVSNKALPAPIEKTISKAKGQPREPQVCTLPPSREEMTKNQVSLSCAVKGFYPSDIAVEWESNGQPENNYKTTPPVLDSDGSFFLVSKLTVDKSRWQQGNVFSCSVMHEALHNHYTQKSLSLSPGK
light: DIQLTQSPSFLSASVGDRVTITCKASQDVGSAVVWYQQKPGKAPKLLIYWASTRHTGVPSRFSGSGSGTEFTLTISSLQPEDFATYFCQQFTSYPTFGQGTKLEIKRTVAAPSVFIFPPSDEQLKSGTASVVCLLNNFYPREAKVQWKVDNALQSGNSQESVTEQDSKDSTYSLSSTLTLSKADYEKHKVYACEVTHQGLSSPVTKSFNRGEC
Q: Which results are given for B5?
A: EC50 (read off the curve) (PDL1 protein): ~0.2 µg/mL; EC50 (read off the curve) [2]: ~1 µg/mL
